Test results taken from paper PMC10427353, “MSL1 Promotes Liver Regeneration by Driving Phase Separation of STAT3 and Histone H4 and Enhancing Their Acetylation” (Advanced Science, 2023).

Tests used:
[1] = target: T1, STAT3 (recombinant, pET‐28a) (mouse, UniProt P42227 1-770); assay: co-sedimentation; sedimentation assay of condensates: purified proteins mixed in phase separation buffer (20 mM HEPES pH 7.8, NaCl, PEG‐8000), 15 000 g for 10 min, supernatant and pellet on SDS–PAGE with Coomassie staining; conditions: both partners purified
T1 construct: STAT3 in pET‐28a; cDNA amplified from mouse liver; The legend of the sedimentation assay names 'STAT3'; source: E. coli BL21, purified (HiTrap HP chelating column)
T1 sequence (P42227 whole entry): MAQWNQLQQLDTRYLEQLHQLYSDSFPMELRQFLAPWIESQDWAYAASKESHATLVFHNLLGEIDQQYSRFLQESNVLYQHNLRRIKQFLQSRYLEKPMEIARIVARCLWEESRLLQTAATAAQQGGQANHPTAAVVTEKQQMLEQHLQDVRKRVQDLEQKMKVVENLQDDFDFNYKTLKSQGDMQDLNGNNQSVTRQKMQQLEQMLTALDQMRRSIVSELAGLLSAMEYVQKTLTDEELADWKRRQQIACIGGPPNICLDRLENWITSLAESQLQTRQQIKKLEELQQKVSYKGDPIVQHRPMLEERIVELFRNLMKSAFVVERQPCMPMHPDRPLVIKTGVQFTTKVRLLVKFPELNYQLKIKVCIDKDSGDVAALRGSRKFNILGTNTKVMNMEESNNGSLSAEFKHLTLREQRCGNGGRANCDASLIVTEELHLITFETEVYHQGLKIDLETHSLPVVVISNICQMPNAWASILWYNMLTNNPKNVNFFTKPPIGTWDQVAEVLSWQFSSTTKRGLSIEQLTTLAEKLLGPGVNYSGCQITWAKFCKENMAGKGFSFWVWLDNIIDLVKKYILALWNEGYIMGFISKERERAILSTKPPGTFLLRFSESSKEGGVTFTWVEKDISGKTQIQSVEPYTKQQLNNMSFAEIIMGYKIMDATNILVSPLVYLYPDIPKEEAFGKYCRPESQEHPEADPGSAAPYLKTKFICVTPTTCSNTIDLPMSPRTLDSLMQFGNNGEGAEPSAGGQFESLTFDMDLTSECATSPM

[2] = target: T2, H4 (recombinant, pET‐28a) (mouse, UniProt P62806 1-103); assay: as above; conditions: both partners purified
T2 construct: histone H4 in pET‐28a; cDNA amplified from mouse liver; The legend of the sedimentation assay names 'H4'; also called histone H4; source: E. coli BL21, purified (HiTrap HP chelating column)

B1: MSL1 (recombinant, pET‐28a) (natural protein, mouse, UniProt Q6PDM1 1-616, looked up)
chain: MTMRSAVFKAAAAPAGGNPEQRLDYERAAALGGPEDESGAAEAHFLPRHRKLKEPGPPLASSQGGSPSPSPAGCGGGKGRGLLLPAGAAPGQQEESWGGSVPLPCPPPATKQAGIGGEPVAAGAGCSPRPKYQAVLPIQTGSIVVAAAKEPTPWAGDKGGAAPPAATASDPAGPPPLPLPGPPPLAPTATAGTLAASEGRWKSIRKSPLGGGGGSGASSQAACLKQILLLQLDLIEQQQQQLQAKEKEIEELKSERDTLLARIERMERRMQLVKRDNEKERHKLLQGYEPEEREEAELSEKIKLERQPELCETSQALPSKPFSCGRSGKGHKRKTPFGNTERKTPVKKLAPEFSKVKTKTPKHSPIKEEPCGSISETVCKRELRSQETPEKPRSSVDTPPRLSTPQKGPSTHPKEKAFSSEMEDLPYLSTTEMYLCRWHQPPPSPLPLRESSPKKEETVARCLMPSSVAGETSVLAVPSWRDHSVEPLRDPNPSDILENLDDSVFSKRHAKLELDEKRRKRWDIQRIREQRILQRLQLRMYKKKGIQESEPEVTSFFPEPDDVESLLITPFLPVVAFGRPLPKLAPQNFELPWLDERSRCRLEIQKKHTPHRTCRK
notes: MSL1 in pET‐28a; cDNA amplified from mouse liver; The legend of the sedimentation assay names 'MSL1'; source: E. coli BL21, purified (HiTrap HP chelating column)
binding result [1]: binds
binding result [2]: binds
